Assay results as given in US20250171537A1 (NOVIMMUNE, published 2025).

Molecular target: T1, human CD47 (human, UniProt Q08722 19-139, limits assumed)
T1 construct: in the IHC study it is the native protein in frozen human tissues; also called Integrin-Associated-Protein; IAP
Test: immunohistochemistry, biotin-conjugated NI-1801 on frozen human tissues
Excerpt: Sections of ovarian carcinoma (endometrioid adenocarcinoma) were used as positive controls.

T1 sequence (Q08722 19-139 limits assumed): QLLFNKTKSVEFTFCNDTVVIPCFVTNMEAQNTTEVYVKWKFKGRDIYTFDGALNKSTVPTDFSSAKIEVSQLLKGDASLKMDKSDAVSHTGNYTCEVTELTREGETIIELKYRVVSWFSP

B1: NI-1801 (bispecific antibody Ka3×O38, anti-CD47 × anti-mesothelin) (bispecific antibody, human IgG1, kappa, lambda)
heavy: not shown
light 1: not shown
light 2: QPVLTQPASLSASPGASASLTCTLRSGINVRDYRIFWYQQKPGSPPQYLLRYKSASDKQQGSGVPSRFSGSKDASANAGILLISGLQSEDEADYYCMIWHHDSEGHAFVFGGGTKLTVLGQPKAAPSVTLFPPSSEELQANKATLVCLISDFYPGAVTVAWKADSSPVKAGVETTTPSKQSNNKYAASSYLSLTPEQWKSHRSYSCQVTHEGSTVEKTVAPTECS
notes: also called CD47×MSLN bispecific
binding result: binds
